From US20040146949A1, “Methods and compounds for disruption of CD40R/CD40L signaling in the treatment of alzheimer's disease” (priority 2002, published 2004)

B1: CD40L: CD40L protein (CD40 ligation) added to N2a cells at 2 μg/mL (protein, UniProt P29965 113-261, looked up)
CD40 ligand, soluble form: MQKGDQNPQIAAHVISEASSKTTSVLQWAEKGYYTMSNNLVTLENGKQLTVKRQGLYYIYAQVTFCSNREASSQAPFIASLCLKSPGRFERILLRAANTHSSAKPCGQQSIHLGGVFELQPGASVFVNVTDPSQVSHGTGFTSFGLLKL
B2: Fas ligand: other TNF ligand superfamily member used as ligand control (protein, UniProt P48023 130-281, looked up)
Tumor necrosis factor ligand …: QIGHPSPPPEKKELRKVAHLTGKSNSRSMPLEWEDTYGIVLLSGVKYKKGGLVINETGLYFVYSKVYFRGQSCNNLPLSHKVYMRNSKYPQDLVMMEGKMMSYCTTGQMWARSSYLGAVFNLTSADHLYVNVSELSLVNFEESQTFFGLYKL

Experiments:
Format in all cases: cell-based
[1] = system: N2a cells overexpressing human wild-type APP-695; assay: APP CTFs by Western blot in N2a cells over-expressing APP-695; settings: for alterations in APP CTFs: ligand controls for specificity, data not shown
Experimental: (§1) FIGS. 9a-f: CD40L modulates APP processing in vivo and in vitro. Fig. a: Brain homogenates were prepared from 12-month-old TgAPPsw/CD40L-deficient, control IgG-treated PSAPP, and anti-CD40L antibody-treated PSAPP animals. Representative lanes are shown from each mouse group. […] Fig. d: Cell lysates were prepared from N2a cells overexpressing human wild-type APP-695 and treated with 2 μg/mL of heat-inactivated CD40L (control) or CD40L protein (CD40 ligation) for 24 hours. […] Fig. f: A-β1-40 and A-β1-42 peptides were analyzed in conditioned media from human wild-type APP-695 overexpressing N2a cells by ELISA (n=3 for each condition). Data are represented as percentage of Aβ peptide secreted 24 hours after CD40 ligation relative to heat-inactivated CD40L treatment. […] Similar results were obtained with antibody 6687 or Chemicon polyclonal APP C-terminal antibody (data not shown).
(§2) We also employed an N2a cell line that stably over-expresses the human wild-type APP-695 transgene (Thinakaran, G., et al., “Metabolism of the Swedish’ amyloid precursor protein variant in neuro2a (N2a) cells, Evidence that cleavage at the ‘beta-secretase’ site occurs in the golgi apparatus,” J. Biol. Chem. 271, 9390-9397 (1996)). […] This effect could be alleviated by co-treatment with anti-CD40L antibody, as we detected anti-CD40L antibody in brains of treated PSAPP mice. To determine whether an incrreased ratio of β-CTF to α-CTF after CD40L treatment might be associated with secretion of Aβ, we measured the latter in conditioned transfected N2a cell media by ELISA. […] To confirm the specificity of this effect, we treated these cells with other TNF ligand superfamily members TNF-α or Fas ligand the additional control ligands transforming growth factor-β1 or neurotrophin.
Western blot (FIGS. 8-9). Mouse brains or cultured cells were lysed in ice-cold lysis buffer as described above, and an aliquot corresponding to 50 μg of total protein was electrophoretically separated using 16.5% Tris-tricine gels (Bio-Rad). Electrophoresed proteins were then transferred to PVDF membranes (Bio-Rad), washed in dH20, and blocked for 1 hour at ambient temperature in Tris-buffered saline (TBS) containing 5% (w/v) of non-fat dry milk. After blocking membranes were hybridized for 1 hour at ambient temperature with various antibodies against the C-terminus of APP or the N-terminus of Aβ. […] Densitometric analysis was performed using the Fluor-S Multilmager™ with Quantity One™ software (Bio-Rad). […] Further β- and γ-secretase activities were quantified in Tg APPsw and Tg APPsw/CD40L def. mice using available kits based on secretase-specific peptides conjugated to fluorgenic reporter molecules (R&D Systems, Minneapolis, Minn., USA). […]

[2] = system: N2a cells overexpressing human wild-type APP-695; assay: secreted Aβ ELISA in conditioned media of N2a cells over-expressing APP-695; settings: for alterations in secretion of Aβ species: ligand controls for specificity, data not shown
Experimental: as §1, §2
ELISA analysis (FIGS. 8-9). Mouse brains (Control, Tg APPsw, CD40L def., and Tg APPsw/CD40L def.) were isolated under sterile conditions on ice and placed in ice-cold lysis buffer (containing 20 mM Tris, pH 7.5, 150 mM NaCl, 1 mM EDTA, 1 mM EGTA, 1% v/v Triton X-100, 2.5 mM sodium pyrophosphate, 1 mM β-glycerolphosphate, 1 mM Na3VO4, 1 µg/mL leupeptin, and 1 mM PMSF). Brains were then sonicated on ice for approximately 3 minutes, let stand for 15 minutes at 4° C., and centrifuged at 15,000 rpm for 15 minutes. Total Aβ species were detected by acid extraction of brain homogenates in 5 M guanidine buffer (Johnson-Wood, K. et al., “Amyloid precursor protein processing and A beta42 deposition in a transgenic mouse model of Alzheimer disease,” Proc. Natl. Acad. Sci USA 94, 1550-1555 (1997)), followed by a 1:10 dilution in lysis buffer. Aβ1-40 and Aβ1-42 and total Aβ (estimated by summing Aβ1-40 and Aβ1-42 values) were quantified in these samples using the Aβ1-40 and Aβ1-42 enzyme-linked immunosorbent assay (ELISA) kits (BioSource, Camarillo, Calif., USA) in accordance with the manufacurer's instruction, except that standards were diluted such that the final concentration included 0.5 M guanidine buffer. Total protein was quantified in brain homogenates using the Bio-Rad protein assay (Bio-Rad, Richmond, Calif., USA); thus, ELISA values were reported as ng of Aβ1-x/wet g of brain. For in vitro analysis of Aβ levels, conditioned media from human APP-over-expressing N2a cells were collected and analyzed at a 1:1 dilution using the method described above, and values were rreported as percentage of Aβ1-x secreted relative to control. […]

[3] = system: N2a cell line that stably overexpresses the human wild-type APP-751 transgene; assay: α-CTF by Western blot in N2a cells overexpressing APP-751; settings: CD40L treatment over time
Text: We have recently identified CD40 on neurons and neuron-like cells (including the N2a neuroblastoma cell line), and have shown that neuronal CD40 is functional, being intimately involved in neuronal development, survival, and maturation (Tan et al., “CD40 is expressed and functional on neuronal cells,” EMBO J. (2002) 21:643-52). Given our in vivo findings, we wished to determine whether CD40L could directly act on neurons to modulate APP processing. An N2a cell line was established that stably overexpresses (by ˜3 fold) the human wild-type APP-751 transgene (Xia et al., “Enhanced production and oligomerizatio of the 42-residue amyloid beta-protein by Chinese hamster ovary cells stably expressing mutant presenilins,” J. Biol. Chem. (1997) 272:7977-82). […] To confirm whether this reduction in α-CTF might be associated with amyloidogenic processing of APP, we measured secreted Aβ in conditioned media. […] Thus CD40L is able to directly promote amyloidogenic APP processing in neurons or neuron-like cells. […] As the vast majority of cases of AD are associated with accumulation of Aβ from a normal APP sequence, the observation that the processing of normal APP can be pushed towards amyloidogenicity by CD40L is of interest. […]
Western blot. […] Densitometric analysis was perfromed using the Fluor-S Multilmager™ with Quantity One™ software (Bio-Rad). […]

[4] = system: N2a cell line that stably overexpresses the human wild-type APP-751 transgene; assay: secreted Aβ in conditioned media of N2a cells overexpressing APP-751; settings: CD40L treatment over time
Text: We have recently identified CD40 on neurons and neuron-like cells (including the N2a neuroblastoma cell line), and have shown that neuronal CD40 is functional, being intimately involved in neuronal development, survival, and maturation (Tan et al., “CD40 is expressed and functional on neuronal cells,” EMBO J. (2002) 21:643-52). Given our in vivo findings, we wished to determine whether CD40L could directly act on neurons to modulate APP processing. […] To confirm whether this reduction in α-CTF might be associated with amyloidogenic processing of APP, we measured secreted Aβ in conditioned media. […]
ELISA analysis. […] Total Aβ species were detected by acid extraction of brain homogenates in 5 M guanidine buffer (Johnson-Wood et al., “Amyloid precursor protein processing and A beta42 deposition in a transgenic mouse model of Alzheimer disease,” Proc. Natl. Acad. Sci. USA (1997) 94:1550-55), followed by a 1:10 dilution in lysis buffer. Aβ1-40, Aβ1-42, and total Aβ (estimated by summing Aβ1-40 and Aβ1-42 values) were quantified in these samples using the Aβ1-40 and Aβ1-42 enzyme-linked immunosorbent assay (ELISA) kits (QCB) in accordance with the manufacturer's instruction, except that standards were diluted such that the final concentration included 0.5 M guanidine buffer. […]

[5] = 24 hour treatment, 2 μg/mL, relative to heat-inactivated CD40L

Molecule | alterations in APP CTFs [1] | alterations in secretion of Aβ species [2] | ratio of APP β-CTF to α-CTF ([1]; 2 μg/mL, serum-free conditions, 24 hours, versus heat-inactivated CD40L) | increase in secreted Aβ1-40 levels [2, 5] | increase in secreted Aβ1-42 levels [2, 5] | α-CTF by Western blot [3] | secreted Aβ1-40 levels in conditioned media [4] | secreted Aβ1-42 levels in conditioned media [4]
TNF-α [reference compound] | did not observe alterations | did not observe alterations | – | – | – | – | – | –
transforming growth factor-β1: additional control ligand [reference compound] | did not observe alterations | did not observe alterations | – | – | – | – | – | –
B1 | – | – | increased ratio | ~85% | ~50% | time-dependent decrease | time-dependent increase | time-dependent increase
B2 | did not observe alterations | did not observe alterations | – | – | – | – | – | –
